Results from patent publication US20260274991A1 (TRIVENI BIO, published 2026).

B1: Trypsin 1/Trypsin 2-Dual-L2-Ab4 (antibody, V domains shown)
VH: QVQLQESGPGLVKPSETLSLTCTVSGGSISSHYWHWIRQPAGKGLEWIGRIHTSGSTFYNPSLKSRVTMSVDTSKNQFSLKLSSVTAADTAVYYCARDLTNYGWSKSIRFYGMDVWGQGTTVTVSS
VL: DIQMTQSPSSLSASVGDRVTITCQASQDISNYLNWYQQKPGKAPKLLIYDASNLETGVPSRFSGSGSGTDFTFTISSLQPEDIATYYCQQTDNFITFGGGTKVEIK
B2: Trypsin 1/Trypsin 2-Dual-L2-Ab1 (antibody, V domains shown)
VH: QVQLQESGPGLVKPSETLSLTCTVSGGSISSYYWSWIRQPAGKGLEWIGRIYTSGSTNYNPSLKSRVTMSVDTSKNQFSLKLSSVTAADTAVYYCARDLTNYGSGKSIRFYGMDVWGQGTTVTVSS
VL: DIQMTQSPSSLSASVGDRVTITCQASQDISNYLNWYQQKPGKAPKLLIYDASNLETGVPSRFSGSGSGTDFTFTISSLQPEDIATYYCQQDDNFITFGGGTKVEIK
B3: Trypsin 1/Trypsin 2-Dual-L2-Ab2 (antibody, V domains shown)
VH: QVQLQESGPGLVKPSETLSLTCTVSGGSISSNYWHWIRQPAGKGLEWIGRIHTSGSTFYNPSLKSRVTMSVDTSKNQFSLKLSSVTAADTAVYYCARDITNYGSGKSIRFYPMDVWGQGTTVTVSS
VL: DIQMTQSPSSLSASVGDRVTITCQASQDISNYLNWYQQKPGKAPKLLIYDASNLETGVPSRFSGSGSGTDFTFTISSLQPEDIATYYCQQDDTFITFGGGTKVEIK
B4: Trypsin 1/Trypsin 2-Dual-L2-Ab3 (antibody, V domains shown)
VH: QVQLQESGPGLVKPSETLSLTCTVSGGSISSHYWHWIRQPAGKGLEWIGRIATSGSTYYNPSLKSRVTMSVDTSKNQFSLKLSSVTAADTAVYYCARDLTNYGITKSIRFYGMDVWGQGTTVTVSS
VL: DIQMTQSPSSLSASVGDRVTITCQASQDISNYLNWYQQKPGKAPKLLIYDASNLETGVPSRFSGSGSGTDFTFTISSLQPEDIATYYCQQVDNFITFGGGTKVEIK
B5: Trypsin 1/Trypsin 2-Dual-L1-Ab1 (antibody, V domains shown)
VH: EVQLLESGGGLVQPGGSLRLSCAASGFTFSSYAMSWVRQAPGKGLEWVSAISASGGSTYYADSVKGRFTISRDNSKNTLYLQMNSLRAEDTAVYYCARGSPIGYSYARVSYYYYMDVWGKGTTVTVSS
VL: DIQMTQSPSSVSASVGDRVTITCRASQGISRWLAWYQQKPGKAPKLLIYAASSLQSGVPSRFSGSGSGTDFTLTISSLQPEDFATYYCQQGNSFPLTFGGGTKVEIK
B6: Trypsin 1/Trypsin 2-Dual-L4-Ab5 (antibody, V domains shown)
VH: QVQLVQSGAEVKKPGASVKVSCKASGYTFTDYAISWVRQAPGQGLEWMGWISASTADTNYAQKLQGRVTMTTDTSTSTAYMELRSLRSDDTAVYYCARQDEVVGKMTYYIGTDVWGQGTTVTVSS
VL: DIQMTQSPSSVSASVGDRVTITCRASQGISRWLAWYQQKPGKAPKLLIYAASSLQSGVPSRFSGSGSGTDFTLTISSLQPEDFATYYCQQANSFPITFGGGTKVEIK
B7: Trypsin 1/Trypsin 2-Dual-L4-Ab2 (antibody, V domains shown)
VH: QVQLVQSGAEVKKPGASVKVSCKASGYTFTDYAISWVRQAPGQGLEWMGWISASTADTNYAQKLQGRVTMTTDTSTSTAYMELRSLRSDDTAVYYCARGDEVVGKMTYYYGMDVWGQGTTVTVSS
VL: DIQMTQSPSSVSASVGDRVTITCRASQGISRWLAWYQQKPGKAPKLLIYAASSLQSGVPSRFSGSGSGTDFTLTISSLQPEDFATYYCQQANSFPITFGGGTKVEIK
B8: Trypsin 1/Trypsin 2-Dual-L4-Ab1 (antibody, V domains shown)
VH: QVQLVQSGAEVKKPGASVKVSCKASGYTFTSYGISWVRQAPGQGLEWMGWISAYSGDTNYAQKLQGRVTMTTDTSTSTAYMELRSLRSDDTAVYYCARGDEVVGKMTYYYGMDVWGQGTTVTVSS
VL: DIQMTQSPSSVSASVGDRVTITCRASQGISRWLAWYQQKPGKAPKLLIYAASSLQSGVPSRFSGSGSGTDFTLTISSLQPEDFATYYCQQANSFPITFGGGTKVEIK
B9: Trypsin 1/Trypsin 2-Dual-L4-Ab3 (antibody, V domains shown)
VH: QVQLVQSGAEVKKPGASVKVSCKASGYTFTDYAISWVRQAPGQGLEWMGWISASTADTNYAQKLQGRVTMTTDTSTSTAYMELRSLRSDDTAVYYCARGDEVVGKRTYYIGMDVWGQGTTVTVSS
VL: DIQMTQSPSSVSASVGDRVTITCRASQGISRWLAWYQQKPGKAPKLLIYAASSLQSGVPSRFSGSGSGTDFTLTISSLQPEDFATYYCQQANSFPITFGGGTKVEIK
B10: Trypsin 1/Trypsin 2-Dual-L4-Ab4 (antibody, V domains shown)
VH: QVQLVQSGAEVKKPGASVKVSCKASGYTFTDYAISWVRQAPGQGLEWMGWISASTADTNYAQKLQGRVTMTTDTSTSTAYMELRSLRSDDTAVYYCARGTEVVGKMTVYLGMDVWGQGTTVTVSS
VL: DIQMTQSPSSVSASVGDRVTITCRASQGISRWLAWYQQKPGKAPKLLIYAASSLQSGVPSRFSGSGSGTDFTLTISSLQPEDFATYYCQQANSFPITFGGGTKVEIK
B11: Trypsin 1/Trypsin 2-Dual-L1-Ab2 (antibody, V domains shown)
VH: EVQLLESGGGLVQPGGSLRLSCAASGFTFGDYAMWWVRQAPGKGLEWVSAISASGDVTYYADSVKGRFTISRDNSKNTLYLQMNSLRAEDTAVYYCARGSLIGYSYARVSYYYYSDVWGKGTTVTVSS
VL: DIQMTQSPSSVSASVGDRVTITCRASQGISRWLAWYQQKPGKAPKLLIYAASSLQSGVPSRFSGSGSGTDFTLTISSLQPEDFATYYCQQGWSFPLTFGGGTKVEIK
B12: Trypsin 1/Trypsin 2-Dual-L3-Ab1 (antibody, V domains shown)
VH: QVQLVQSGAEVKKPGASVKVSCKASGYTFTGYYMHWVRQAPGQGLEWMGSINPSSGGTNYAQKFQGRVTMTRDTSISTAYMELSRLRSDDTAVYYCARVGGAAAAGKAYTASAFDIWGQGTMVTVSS
VL: EIVMTQSPATLSVSPGERATLSCRASQSVGSNLAWYQQKPGQAPRLLIYGASTRATGIPARFSGSGSGTEFTLTISSLQSEDFAVYYCQQFHNWPPLTFGGGTKVEIK
B13: Trypsin 1/Trypsin 2-Dual-L5-Ab1 (antibody, V domains shown)
VH: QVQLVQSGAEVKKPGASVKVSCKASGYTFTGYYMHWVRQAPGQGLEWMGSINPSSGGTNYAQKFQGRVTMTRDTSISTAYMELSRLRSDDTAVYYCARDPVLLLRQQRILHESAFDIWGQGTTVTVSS
VL: EIVMTQSPATLSVSPGERATLSCRASQSVGSNLAWYQQKPGQAPRLLIYGASTRATGIPARFSGSGSGTEFTLTISSLQSEDFAVYYCQQFHNWPPLTFGGGTKVEIK
B14: Trypsin 1/Trypsin 2-Dual-L3-Ab2 (antibody, V domains shown)
VH: QVQLVQSGAEVKKPGASVKVSCKASGYTFTDHYMHWVRQAPGQGLEWMGAINPSSGGTAYAQKFQGRVTMTRDTSISTAYMELSRLRSDDTAVYYCARVGGAARVGKAYTASAFDIWGQGTMVTVSS
VL: EIVMTQSPATLSVSPGERATLSCRASQSVGSNLAWYQQKPGQAPRLLIYGASTRATGIPARFSGSGSGTEFTLTISSLQSEDFAVYYCQQFHNWPPLTFGGGTKVEIK

Experiments:
[1] = molecular target: human PRSS1 (R&D Systems), activated with enterokinase (human, UniProt P07477 24-247); assay: cell-based or functional assay
[2] = molecular target: PRSS2 (R&D Systems), activated with enterokinase (human, UniProt P07478 24-247); assay: cell-based or functional assay
PRSS2 (R&D Systems), activated with enterokinase, sequence (P07478 24-247 limits assumed): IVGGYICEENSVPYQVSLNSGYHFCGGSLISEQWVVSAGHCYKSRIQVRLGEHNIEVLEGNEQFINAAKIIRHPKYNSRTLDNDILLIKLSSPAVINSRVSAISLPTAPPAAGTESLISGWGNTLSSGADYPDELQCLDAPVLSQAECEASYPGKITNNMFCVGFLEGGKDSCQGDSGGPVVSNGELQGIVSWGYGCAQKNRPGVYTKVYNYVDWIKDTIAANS

[3] = molecular target: Native Trypsin (abcam); assay: cell-based or functional assay
[4] = molecular target: T1, human trypsin 1 with serine to alanine mutation (including a His tag at C terminus) (human, UniProt P07477 24-247); assay: SPR (Biacore), antibody captured on Protein A chip, single-cycle kinetics, 25 C
T1 construct: also called Trypsin 1 S to A
Method: (§1) Antibody binding kinetic experiments via Biacore were performed to screen for anti-trypsin 1/trypsin 2 antibodies having high affinity to the respective targets. All screening assays were performed at 25 C. The running buffer used was 20 mM HEPES, 300 mM NaCl, 1 mM CaCl₂, 0.01% Tween-20, pH 7.5. Antibodies (1 ug/mL) were captured on Fc2-4 of a Series S ProteinA Sensor Chip (Cytiva) flowing at 10 uL/min for 30 s. Kinetics measurements were made in single-cycle kinetics mode with a series of 4-5 concentrations with top concentration of 10-200 nM and serial dilution 4-fold. Contact time was typically 180-300 s and dissociation time ranged from 300-3600 s. Flow rate of 30 uL/min was typically used. The sensor chip was regenerated with 10 mM glycine, pH 1.5 with a contact time of 30 s flowing at 50 uL/min.

[5] = molecular target: T2, human trypsin 2 with serine to alanine mutation (including a His tag at C terminus) (human, UniProt P07478 25-247, limits assumed); assay: as above
T2 construct: also called Trypsin 2 S to A
T2 sequence (P07478 other isoform, or with tags, fused parts or gaps limits assumed): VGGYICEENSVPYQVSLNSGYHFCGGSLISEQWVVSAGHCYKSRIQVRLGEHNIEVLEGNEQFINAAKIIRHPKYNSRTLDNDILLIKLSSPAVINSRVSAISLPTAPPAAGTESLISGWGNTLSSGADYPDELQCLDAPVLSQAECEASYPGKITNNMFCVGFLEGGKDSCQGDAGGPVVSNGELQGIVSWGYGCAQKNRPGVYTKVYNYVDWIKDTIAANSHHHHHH
Method: as §1

Binder | IC50 Against 1 nM hTryp-1 [1] [nM] | IC50 Against 1 nM hTryp-2 [2] [nM] | IC50 Against 0.25 nM Native Trypsin [3] [nM] | Kd [4] [nM] | Kd [5] [nM]
B1 | 3.71 | 5.6 | 4.97 | < 0.01 | 0.00904
B2 | 46 | 79 | – | 2.61 | 2.2
B3 | 2.67 | 3.3 | 5.51 | 0.000891 | 0.00988
B4 | 2.3 | 2.44 | 4.63 | 0.0118 | 0.0219
B5 | 63 | 79 | – | 2.54 | 0.763
B6 | 2.4 | 2.7 | – | 0.00465 | 0.0274
B7 | 2.07 | 2.03 | 5.51 | < 0.01 | 0.0372
B8 | 1.8 | 14 | – | 0.0809 | 0.547
B9 | 2.31 | 2.01 | 4.43 | 0.00841 | 0.0451
B10 | 2.05 | 2.01 | 5.48 | < 0.01 | 0.0206
B11 | 3.7 | 5.33 | 7.98 | < 0.01 | < 0.01
B12 | 5 | 16 | – | 0.0177 | 0.159
B13 | 45 | 23 | – | 0.151 | 0.227
B14 | 2.75 | 4.29 | 5.95 | 0.00562 | 0.0292
